The target of this experiment is T1, Methylococcus capsulatus (Bath) soluble methane monooxygenase hydroxylase (sMMOH), alpha subunit (Methylococcus capsulatus (Bath), UniProt P22869 1-527).
T1 sequence (looked up): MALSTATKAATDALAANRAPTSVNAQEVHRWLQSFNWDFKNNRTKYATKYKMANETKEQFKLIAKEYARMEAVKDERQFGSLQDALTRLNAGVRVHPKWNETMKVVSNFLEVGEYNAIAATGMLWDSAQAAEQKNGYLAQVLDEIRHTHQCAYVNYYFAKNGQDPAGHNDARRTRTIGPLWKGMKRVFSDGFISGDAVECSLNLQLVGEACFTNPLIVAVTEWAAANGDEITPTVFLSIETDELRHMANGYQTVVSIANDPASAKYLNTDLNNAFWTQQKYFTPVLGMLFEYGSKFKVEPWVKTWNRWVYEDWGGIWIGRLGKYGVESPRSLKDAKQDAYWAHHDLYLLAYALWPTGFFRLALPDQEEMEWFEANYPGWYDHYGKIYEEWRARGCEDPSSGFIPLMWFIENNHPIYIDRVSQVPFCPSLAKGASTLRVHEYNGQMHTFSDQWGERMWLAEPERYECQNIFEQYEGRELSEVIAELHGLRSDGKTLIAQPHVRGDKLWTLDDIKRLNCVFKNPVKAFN
Briefly: cryo-EM structure.

B1: Methylococcus capsulatus (Bath) soluble methane monooxygenase hydroxylase (sMMOH), beta subunit (natural protein, UniProt P18798 1-389, looked up)
chain: MSMLGERRRGLTDPEMAAVILKALPEAPLDGNNKMGYFVTPRWKRLTEYEALTVYAQPNADWIAGGLDWGDWTQKFHGGRPSWGNETTELRTVDWFKHRDPLRRWHAPYVKDKAEEWRYTDRFLQGYSADGQIRAMNPTWRDEFINRYWGAFLFNEYGLFNAHSQGAREALSDVTRVSLAFWGFDKIDIAQMIQLERGFLAKIVPGFDESTAVPKAEWTNGEVYKSARLAVEGLWQEVFDWNESAFSVHAVYDALFGQFVRREFFQRLAPRFGDNLTPFFINQAQTYFQIAKQGVQDLYYNCLGDDPEFSDYNRTVMRNWTGKWLEPTIAALRDFMGLFAKLPAGTTDKEEITASLYRVVDDWIEDYASRIDFKADRDQIVKAVLAGLK
Turning to B1, the binding result was “binds”.
